Here are results for five molecules from patent US20160362487A1 (Regeneron, published 2016).

Assay [1] addresses T1, cynomolgus monkey IL-33 expressed with a C-terminal hexahistidine tag (cynomolgus monkey).
T1 construct: also called MfIL-33-6His; Mf-IL-33-6His
T1 chain: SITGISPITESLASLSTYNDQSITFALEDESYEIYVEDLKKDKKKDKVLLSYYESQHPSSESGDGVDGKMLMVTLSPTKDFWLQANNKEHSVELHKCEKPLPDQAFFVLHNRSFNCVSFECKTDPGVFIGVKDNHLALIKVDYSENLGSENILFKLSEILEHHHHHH
Kind of assay: SPR 25C pH7.4, mAb captured. Summed up:
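mAb capture via anti-mouse polyclonal or anti-human Fc; running buffer 0.01M ADA pH 7.4, 0.15M NaCl, 3 mM EDTA, 0.05% Tween-20; 4 min association, 10 min dissociation; 25° C. and 37° C.; 1:1 fit, KD = kd/ka-derived.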

Assay [2] concerns the target T1, cynomolgus monkey IL-33 expressed with …. Nature of the assay: BLI; captured MfIL-33-6His, mAb-1 step with Isotype control. The method, then:
Binding competition between a panel of different anti-IL-33 monoclonal antibodies was determined using a real time, label-free bio-layer interferometry assay on an Octet® HTX biosensor (ForteBio, A Division of Pall Life Sciences). The experiment was performed at 25° C. using a buffer of 0.01M HEPES pH7.4, 0.15M NaCl, 3 mM EDTA, 0.05% v/v Surfactant Tween-20, and 0.1 mg/ml BSA (HBS-ET kinetics buffer) with the plate shaking at a speed of 1000 rpm. […] The antigen-captured biosensors were then saturated with a first anti-IL-33 monoclonal antibody (subsequently referred to as mAb-1) by immersion into wells containing 50 μg/mL solution of mAb-1 for 5 minutes. The biosensors were then dipped into wells containing a 50 μg/mL solution of a second anti-IL-33 monoclonal antibody (subsequently referred to as mAb-2) for 4 minutes. The biosensors were washed in HBS-ET kinetics buffer in between every step of the experiment. The real-time binding response was monitored during the experiment, and the maximum binding response for each binding step was recorded. The response of mAb-2 binding to MfIL-33-6His pre-complexed with mAb-1 was measured, and competitive/non-competitive behavior of different anti-IL-33 monoclonal antibodies with respect to each other was determined.

Assay [3] has the same target. Nature of the assay: SPR 37C, pH6.0 chase, mAb captured. As for the experimental part: (§1) Equilibrium dissociation constants (KD values) for IL-33 binding to purified anti-IL-33 monoclonal antibodies were determined using a real-time surface plasmon resonance biosensor using a Biacore 4000 instrument. The Biacore sensor surface was first derivatized by amine coupling with either a polyclonal rabbit anti-mouse antibody (GE, # BR-1008-38) or with a monoclonal mouse anti-human Fc antibody (GE, # BR-1008-39) to capture anti-IL-33 monoclonal antibodies expressed with mouse or with human IgG4 constant regions, respectively. All Biacore binding studies were performed in 0.01M ADA pH 7.4, 0.15M NaCl, 3 mM EDTA, and 0.05% v/v Surfactant Tween-20 (ABS-ET running buffer). […] Association of either hIL-33 or MfIL-33-6His to the captured monoclonal antibody was monitored for 4 minutes and their dissociation in ABS-ET running buffer was monitored for 10 minutes. The effect of reduced pH on the binding of each anti-IL-33 antibody to either hIL-33 or MfIL-33-6His was studied using an in-line pH chase assay format in 0.01M ADA pH 6.0, 0.15M NaCl, 3 mM EDTA, and 0.05% v/v Surfactant Tween-20 (ABS-ET pH6 buffer). To achieve this, association of either hIL-33 or MfIL-33-6His to the captured monoclonal antibody was monitored for 4 minutes in ABS-ET running buffer. Following a 30 second dissociation of either hIL-33 or MfIL-33-6His in ABS-ET running buffer, ABS-ET pH6 buffer was injected for 3 minutes, and the analyte dissociation under the low-pH conditions was measured. All the binding kinetic experiments were performed at both 25° C. and 37° C. Kinetic association (kₐ) and dissociation (kd) constants were determined by fitting the real-time sensorgrams to a 1:1 binding model using Scrubber 2.0c curve fitting software. Binding dissociation equilibrium constants (KD) and dissociative half-lives (t½) were calculated from the kinetic rate constants as: […]

Assay [4] addresses T2, human IL-33 (R&D Systems, #3625-IL-010/CF) (human, UniProt O95760 112-270).
T2 construct: Commercial recombinant protein; also called hIL-33; interleukin-33
T2 sequence (looked up): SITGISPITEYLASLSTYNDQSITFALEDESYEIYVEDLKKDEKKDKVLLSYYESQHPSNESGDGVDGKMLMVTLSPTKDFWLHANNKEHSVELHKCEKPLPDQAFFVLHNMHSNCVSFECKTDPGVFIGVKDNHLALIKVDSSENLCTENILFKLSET
Nature of the assay: BLI; hIL-33 pre-mixed with mAb-2 H1M9565N. The method, then: Binding competition between a panel of different anti-IL-33 monoclonal antibodies was determined using a real time, label-free bio-layer interferometry assay on an Octet® HTX biosensor (ForteBio, A Division of Pall Life Sciences). The experiment was performed at 25° C. using a buffer of 0.01M HEPES pH7.4, 0.15M NaCl, 0.05% v/v Surfactant Tween-20, and 0.1 mg/ml BSA (HBS-ET kinetics buffer) with the plate shaking at a speed of 1000 rpm. To assess whether two antibodies were able to compete with one another for binding to human IL-33, a pre-mix assay format was used where 100 nM of human IL-33 (R&D Systems; #3625-IL-010/CF) was pre-mixed with 500 nM of different anti-IL-33 monoclonal antibodies (subsequently referred to as mAb-2) for at least 2 hours prior to running the binding competition assay. […] Following the capture step, unoccupied anti-mouse Fc polyclonal antibody and anti-human Fc polyclonal antibody on the Octet biosensors were saturated by submerging them for 4 minutes into wells containing 200 μg/mL of a non-specific monoclonal antibody with a mouse Fc or with a human Fc, respectively. Finally, the Octet biosensors were immersed for 4 minutes into wells containing the pre-mixed samples of 100 nM of human IL-33 and 500 nM of mAb-2. At the end of each cycle, the non-covalently captured anti-IL-33 antibodies along with the bound pre-complex of human IL-33 and mAb-2 were removed from the biosensors using three alternate 20 second immersions into 10 mM HCl followed by submerging into HBS-ET kinetics buffer. The biosensors were washed in HBS-ET kinetics buffer in between every step of the experiment. The real-time binding response was monitored during the binding events, and the binding response (in units of nm) at the end of every step was recorded.

Assay [5] concerns the target T2, human IL-33 (R&D Systems, …). Nature of the assay: SPR 37C, pH6.0 chase, mAb captured. As for the experimental part:
as §1

B1: H1M9565N (antibody, mouse IgG1, V domains shown)
VH: QVTLKESGPVLVKPTESLTLTCSVSGFSLSNVRMGVSWIRQSPGKALEWLAHIFSNDEKSYTTSLKTRLTISKDTSRSQVVLTMTDMDPGDTATYYCARIRNLAFNYWGQGTLVTVSS
VL: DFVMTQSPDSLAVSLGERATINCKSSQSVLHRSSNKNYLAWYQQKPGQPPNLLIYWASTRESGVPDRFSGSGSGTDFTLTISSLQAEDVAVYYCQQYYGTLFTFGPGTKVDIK
notes: Human variable domains, mouse IgG1 Fc (H1M)
In assay [1], B1 gave a Kd of 1.77 nM, an off-rate (koff) of 7.2e-05 s⁻¹, an on-rate (kon) of 40600 M⁻¹ s⁻¹ and a t½ of 160 min. For the same molecule, in assay [2], the “mAb-2 Binding to the Pre-complex of mAb-1 & MfIL-33-6xHis” value (“mAb-2 Binding to the Pre-complex” for short) is 0.34 nm. In assay [3], the off-rate constant (koff) was determined as 0.000228 s⁻¹, the t½ was 51 min and the “t½ Ratio (pH 7.4/pH 6.0)” value was 1.1.

B2: H4H9629P (antibody, human IgG4, V domains shown)
VH: EVQLVESGGGLVQPGGSLRLSCAASGFTFRSFAMSWVRQAPGKGLELVSDLRTSGGSTYYADSVKGRLTISRDNSKNTLYLQMNSLRAEDTAVYYCAKSHYSTSWFGGFDYWGQGTLVTVSS
VL: DIQMTQSPSSVSASVGDRVTITCRASQGFSSWLAWYQQKPGKAPKLLIYAASSLQSGVPSRFSGSGSGTDFTLTITNLQPEDFATYYCQQANSFPLTFGGGTKVEIK
notes: Human IgG4 Fc (H4H)
As for B2, in assay [1], the affinity, expressed as Kd, was 23.9 nM; the koff was determined as 0.0135 s⁻¹; the kon was determined as 562000 M⁻¹ s⁻¹; the t½ amounted to 0.9 min. Besides, in assay [4], the “mAb-1 Binding to the Pre-complex of mAb-2 & hIL-33” value (shortened to “mAb-1 Binding to the Pre-complex”) stood at 0.74 nm. Besides, the “mAb-2 Binding to the Pre-complex” value in assay [2] came to 0.26 nm. Further, in assay [5], the koff is 0.00582 s⁻¹, the t½ was found to be 2 min and the “t½ Ratio (pH 7.4/pH 6.0)” value is 9.

B3: H4H9672P (antibody, human IgG4, V domains shown)
VH: EVQLVESGGGLVQPGGSLRLSCAASGFTLRSYVMYWVRQGPGKGLEGVSGISGSSGGTYYTDSVKGRFTISRDNSKNTLFLQMNSLRAEDTAVYFCARSVYSTTWYGGFQHWGQGTLVTVSS
VL: DIQMTQSPSSVSVSVGDRVTITCRASQVISSWLAWYQLKPGKAPKLLIYAASSLQSGVPSRFSGSGSGTDFTLTISGLQPEDFAVYYCQQTNSFPLTFGGGTKVEIK
notes: Human IgG4 Fc (H4H)
In assay [1], B3 displayed a dissociation constant (Kd) of 8.22 nM, a koff of 0.0036 s⁻¹, a kon of 437000 M⁻¹ s⁻¹ and a t½ of 3.2 min. In addition, in assay [4], the “mAb-1 Binding to the Pre-complex” value worked out at 0.52 nm. Moreover, in assay [2], the “mAb-2 Binding to the Pre-complex” value worked out at 0.25 nm. Also, in assay [5], the off-rate constant (koff) turned out to be 0.00541 s⁻¹, the t½ came to 2 min and the “t½ Ratio (pH 7.4/pH 6.0)” value was determined as 4.7.

B4: H4H9633P (antibody, human IgG4, V domains shown)
VH: EVQLVESGGGLVQPGGSLRLSCAASGFTFSSYVMSWVRQAPGKGLEWVSSISGNGGSTNYADSVKGRFTISRDNSKNTLFLEMNSLRAEDTAVYYCAKSLGTTTTFLGFDYWGQGTLVTVSS
VL: DIQMTQSPSSVSASVGDRVTITCRASQGISSWLAWYQQKPGKAPKLLIYAASSLQSGVPSRFSGSGSGTYFTLTISSLQPEDFATYYCQQANSFPLTFGGGTKVEIK
notes: Human IgG4 Fc (H4H)
In assay [1], B4 returned an equilibrium dissociation constant (Kd) of 38 nM, a koff of 0.00997 s⁻¹, a kon of 262000 M⁻¹ s⁻¹ and a t½ of 1.2 min. In assay [4], the “mAb-1 Binding to the Pre-complex” value came out at 0.66 nm. Further, the “mAb-2 Binding to the Pre-complex” value in assay [2] came out at 0.28 nm. In assay [5], the koff was 0.0024 s⁻¹, the t½ amounted to 5 min and the “t½ Ratio (pH 7.4/pH 6.0)” value is 3.5.

B5: H4H9666P (antibody, human IgG4, V domains shown)
VH: QVQLVQSGAEVKKPGASVKVSCKASGYTFTSYGISWVRQAPGQGLEWMGWIRAYNGYTNYAQKFQGRVTMTTDTSTNTAYMELRTLNSDDTAVYYCARDRYSGSFHGNFDYWGQGTLVTVSS
VL: DIQMTQSPSSVSASVGDRVTITCRASQGIFSWLAWYQQKPGKAPKVLIYAASNLESGVPSRFSGSGSGTDFTLTISSLQPEDFATYYCQQANSLPLTFGGGTKVEIK
notes: Human IgG4 Fc (H4H)
B5: in assay [1], the affinity, expressed as Kd, was 15.9 nM; the off-rate constant (koff) stood at 0.00354 s⁻¹; the kon was determined as 222000 M⁻¹ s⁻¹; the t½ was determined as 3.3 min. Moreover, the “mAb-1 Binding to the Pre-complex” value in assay [4] worked out at 0.56 nm. In assay [2], the “mAb-2 Binding to the Pre-complex” value worked out at 0.28 nm. Also, in assay [5], the koff turned out to be 0.0068 s⁻¹, the t½ is 2 min and the “t½ Ratio (pH 7.4/pH 6.0)” value was 8.8.
